According to article doi:10.1101/2023.12.15.571945:

Biological target: GFP-Rab13-2 (N. benthamiana)
Experiment: co-IP

## REP-3xFLAG (Rab escort protein 1) (natural protein)
  level of binding (α-FLAG/α-GFP) with RFP-Pc12 expressed: 1.3
